The values that follow come from PMC5777247, “Cohesin SA2 is a sequence-independent DNA-binding protein that recognizes DNA replication and repair intermediates”.

Data set [1] concerns the target T1, SA2 (STAG2), full length (human, UniProt Q8N3U4 1-1231).
T1 sequence: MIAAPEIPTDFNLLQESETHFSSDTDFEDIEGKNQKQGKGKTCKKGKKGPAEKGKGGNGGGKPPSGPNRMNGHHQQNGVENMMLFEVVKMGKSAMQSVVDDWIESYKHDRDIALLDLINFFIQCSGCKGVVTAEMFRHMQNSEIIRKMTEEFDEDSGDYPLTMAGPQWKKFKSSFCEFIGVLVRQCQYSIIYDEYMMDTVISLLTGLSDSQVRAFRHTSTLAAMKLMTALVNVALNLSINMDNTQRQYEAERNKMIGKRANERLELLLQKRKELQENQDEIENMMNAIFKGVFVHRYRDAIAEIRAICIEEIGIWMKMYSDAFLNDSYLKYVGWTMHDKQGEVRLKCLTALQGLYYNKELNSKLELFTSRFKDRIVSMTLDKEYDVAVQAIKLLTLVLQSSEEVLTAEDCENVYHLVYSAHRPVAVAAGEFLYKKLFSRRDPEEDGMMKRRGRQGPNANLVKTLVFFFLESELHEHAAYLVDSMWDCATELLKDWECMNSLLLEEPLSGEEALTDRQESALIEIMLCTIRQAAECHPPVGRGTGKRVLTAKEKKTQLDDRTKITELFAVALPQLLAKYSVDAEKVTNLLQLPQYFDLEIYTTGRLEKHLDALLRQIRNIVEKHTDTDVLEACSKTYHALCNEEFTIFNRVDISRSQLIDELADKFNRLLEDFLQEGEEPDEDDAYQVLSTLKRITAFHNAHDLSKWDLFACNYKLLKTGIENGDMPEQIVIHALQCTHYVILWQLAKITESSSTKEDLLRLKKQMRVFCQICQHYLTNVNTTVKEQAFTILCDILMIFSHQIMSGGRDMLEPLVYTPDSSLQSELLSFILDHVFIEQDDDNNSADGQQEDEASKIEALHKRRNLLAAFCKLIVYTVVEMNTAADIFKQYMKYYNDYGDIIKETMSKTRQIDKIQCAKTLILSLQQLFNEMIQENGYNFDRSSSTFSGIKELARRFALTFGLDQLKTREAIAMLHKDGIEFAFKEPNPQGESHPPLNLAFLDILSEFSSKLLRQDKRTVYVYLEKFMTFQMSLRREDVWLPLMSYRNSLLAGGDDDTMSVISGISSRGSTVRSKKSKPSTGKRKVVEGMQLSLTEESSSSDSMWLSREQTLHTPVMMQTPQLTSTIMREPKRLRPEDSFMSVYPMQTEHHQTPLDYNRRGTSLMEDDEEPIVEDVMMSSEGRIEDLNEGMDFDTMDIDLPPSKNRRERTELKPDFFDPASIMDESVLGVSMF
The data set is described as follows: fluorescence anisotropy; no detectable binding (ND); Anisotropy: 20 mM Hepes pH 7.5, 0.1 mM MgCl2, 0.5 mM DTT, 100 mM KCl, 1 nM DNA; AFM: 20 mM Hepes pH 7.5, 100 mM KCl, 0.1 mM MgCl2, room temperature, 20 min. The settings on record: protein: recombinant; tags: 6xHis; label: 5' Alexa 488 on strand 1; blunt. A general note: Polarisation of emitted light reports the rotation of a fluorescent probe.

Another data set addresses T2, SA2 1-1051 (human, UniProt Q8N3U4 1-1051).
T2 sequence: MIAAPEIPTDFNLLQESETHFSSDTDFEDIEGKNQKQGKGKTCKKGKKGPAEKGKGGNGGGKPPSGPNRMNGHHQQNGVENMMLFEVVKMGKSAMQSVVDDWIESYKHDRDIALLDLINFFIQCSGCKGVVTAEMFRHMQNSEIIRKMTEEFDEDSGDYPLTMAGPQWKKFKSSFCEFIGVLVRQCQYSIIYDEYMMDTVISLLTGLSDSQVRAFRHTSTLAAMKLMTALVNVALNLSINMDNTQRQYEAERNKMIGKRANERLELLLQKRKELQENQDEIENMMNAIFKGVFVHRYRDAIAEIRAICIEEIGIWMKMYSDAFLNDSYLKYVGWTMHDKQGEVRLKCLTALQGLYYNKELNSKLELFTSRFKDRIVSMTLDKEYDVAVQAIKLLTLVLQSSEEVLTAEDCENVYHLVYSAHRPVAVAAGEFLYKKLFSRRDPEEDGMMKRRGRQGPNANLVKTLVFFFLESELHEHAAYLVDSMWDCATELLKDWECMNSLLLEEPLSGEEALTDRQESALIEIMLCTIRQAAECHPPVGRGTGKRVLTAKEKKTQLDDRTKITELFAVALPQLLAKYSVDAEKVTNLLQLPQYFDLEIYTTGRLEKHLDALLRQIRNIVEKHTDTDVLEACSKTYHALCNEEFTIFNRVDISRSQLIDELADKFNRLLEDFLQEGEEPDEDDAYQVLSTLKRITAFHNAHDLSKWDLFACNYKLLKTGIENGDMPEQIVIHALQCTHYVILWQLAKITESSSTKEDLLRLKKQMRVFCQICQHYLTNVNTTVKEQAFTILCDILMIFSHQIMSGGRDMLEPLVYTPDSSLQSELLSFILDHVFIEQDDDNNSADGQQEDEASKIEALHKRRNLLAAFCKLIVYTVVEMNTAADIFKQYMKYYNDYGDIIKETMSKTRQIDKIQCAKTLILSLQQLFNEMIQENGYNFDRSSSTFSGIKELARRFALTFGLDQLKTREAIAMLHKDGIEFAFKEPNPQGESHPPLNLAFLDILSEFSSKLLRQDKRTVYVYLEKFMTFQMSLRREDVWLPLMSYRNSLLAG
Briefly: fluorescence anisotropy; Anisotropy: 20 mM Hepes pH 7.5, 0.1 mM MgCl2, 0.5 mM DTT, 100 mM KCl, 1 nM DNA; AFM: 20 mM Hepes pH 7.5, 100 mM KCl, 0.1 mM MgCl2, room temperature, 20 min. To be noted: protein: recombinant; tags: 6xHis; label: Alexa 488.

A further data set has as its target T3, SA1 (STAG1), full length (UniProt Q8WVM7 1-1258).
T3 sequence: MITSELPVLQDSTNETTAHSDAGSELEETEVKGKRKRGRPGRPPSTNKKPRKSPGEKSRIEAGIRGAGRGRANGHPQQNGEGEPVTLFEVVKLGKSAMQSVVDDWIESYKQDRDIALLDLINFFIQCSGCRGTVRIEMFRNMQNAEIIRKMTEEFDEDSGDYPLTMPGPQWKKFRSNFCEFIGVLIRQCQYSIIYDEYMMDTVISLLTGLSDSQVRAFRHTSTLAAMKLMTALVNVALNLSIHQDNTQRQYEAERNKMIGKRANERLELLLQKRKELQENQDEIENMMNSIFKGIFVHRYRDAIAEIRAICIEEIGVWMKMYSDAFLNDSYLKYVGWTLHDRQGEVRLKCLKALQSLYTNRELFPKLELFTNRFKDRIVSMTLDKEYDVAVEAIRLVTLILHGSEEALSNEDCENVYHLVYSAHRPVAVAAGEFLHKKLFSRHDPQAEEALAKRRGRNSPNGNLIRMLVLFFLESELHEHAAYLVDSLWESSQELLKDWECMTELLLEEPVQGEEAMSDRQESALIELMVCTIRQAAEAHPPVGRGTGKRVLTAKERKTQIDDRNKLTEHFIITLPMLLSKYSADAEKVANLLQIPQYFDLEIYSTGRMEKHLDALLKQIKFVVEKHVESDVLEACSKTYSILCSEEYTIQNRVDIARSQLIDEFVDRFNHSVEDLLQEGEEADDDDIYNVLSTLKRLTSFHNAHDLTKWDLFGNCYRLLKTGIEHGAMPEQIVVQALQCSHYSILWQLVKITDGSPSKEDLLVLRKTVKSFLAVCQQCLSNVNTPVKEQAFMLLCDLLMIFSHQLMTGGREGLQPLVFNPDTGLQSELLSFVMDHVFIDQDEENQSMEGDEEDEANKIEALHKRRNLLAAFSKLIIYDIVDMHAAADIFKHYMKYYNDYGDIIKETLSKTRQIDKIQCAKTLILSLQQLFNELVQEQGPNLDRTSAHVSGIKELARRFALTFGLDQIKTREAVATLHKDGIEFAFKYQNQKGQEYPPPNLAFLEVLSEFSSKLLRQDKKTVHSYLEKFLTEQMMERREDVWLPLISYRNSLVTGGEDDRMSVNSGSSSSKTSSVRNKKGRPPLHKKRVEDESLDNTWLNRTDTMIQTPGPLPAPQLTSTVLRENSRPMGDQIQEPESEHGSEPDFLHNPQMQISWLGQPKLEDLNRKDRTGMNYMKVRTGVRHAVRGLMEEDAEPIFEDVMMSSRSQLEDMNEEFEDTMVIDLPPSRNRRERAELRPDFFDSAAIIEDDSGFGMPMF
The description is as above. To be noted: protein: recombinant; label: Alexa 488.

Data set [2] addresses T1, SA2 (STAG2), full length. Described as above. To be noted: protein: recombinant; tags: 6xHis; label: Alexa 488.

B1: ds25 (Alexa ss25 + ss-25-com) (dsDNA)
DNA 1: TGTCGCATAGTGTAGTCGGTCTTGT
DNA 2: ACAAGACCGACTACACTATGCGACA
As to B1, in the data set with SA2 (STAG2), full length [1], the binding result is listed as “no binding”.

B2: ss66 (Alexa ss66) (ssDNA)
DNA: CTGGATCCGTACAGTGTAAGGGTGAGTGGTTGGGTGTGTGGGTGTTGATGTAGAACAAGAATTCGA
As usually defined, the Kd is the constant that tells how readily two partners part at equilibrium. For the molecule B2, the Kd with SA2 1-1051 came out at 28 nM; in the data set with SA1 (STAG1), full length, 36.5 ± 0.2 nM; with SA2 (STAG2), full length [2], 41 ± 5.3 nM.
